# Measured values published in patent publication US20190328898A1 (AGENSYS, published 2019).
# T1: 161P2F10B protein (human, UniProt O14638 1-875)
# T1 construct: 875 amino acid ORF cloned from kidney cancer patient specimens; Assayed on cells: recombinant on 3T3-161P2F10B cells, endogenous on Ku812/KU812, UGK-3 and RXF-393 cells; also called 161P2F10B antigen; cell surface 161P2F10B
# T1 sequence: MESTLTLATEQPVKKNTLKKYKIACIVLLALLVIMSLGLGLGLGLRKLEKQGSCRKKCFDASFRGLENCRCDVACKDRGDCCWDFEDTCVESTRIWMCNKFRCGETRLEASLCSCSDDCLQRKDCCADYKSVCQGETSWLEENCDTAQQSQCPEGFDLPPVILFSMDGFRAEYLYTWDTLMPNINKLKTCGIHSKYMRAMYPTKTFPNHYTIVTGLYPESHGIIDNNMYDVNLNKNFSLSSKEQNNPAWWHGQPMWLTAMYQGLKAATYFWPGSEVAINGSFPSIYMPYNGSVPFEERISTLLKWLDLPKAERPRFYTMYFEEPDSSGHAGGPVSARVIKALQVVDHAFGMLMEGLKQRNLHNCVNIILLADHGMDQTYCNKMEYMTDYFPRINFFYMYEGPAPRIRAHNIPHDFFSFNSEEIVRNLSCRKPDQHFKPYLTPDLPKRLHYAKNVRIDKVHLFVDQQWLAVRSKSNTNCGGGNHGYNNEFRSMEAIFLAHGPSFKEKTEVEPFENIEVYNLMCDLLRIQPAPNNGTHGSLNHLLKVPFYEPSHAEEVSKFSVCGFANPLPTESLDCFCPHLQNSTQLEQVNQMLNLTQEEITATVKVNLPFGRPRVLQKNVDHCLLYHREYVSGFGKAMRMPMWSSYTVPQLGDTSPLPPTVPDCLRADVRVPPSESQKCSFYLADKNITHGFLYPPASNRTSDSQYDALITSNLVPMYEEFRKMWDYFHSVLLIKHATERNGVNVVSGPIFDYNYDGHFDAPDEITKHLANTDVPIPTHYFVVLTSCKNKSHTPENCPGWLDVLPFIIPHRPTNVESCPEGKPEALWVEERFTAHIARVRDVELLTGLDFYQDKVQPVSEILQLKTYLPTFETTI
# B1: H16-7.8mcMMAF (antibody, V domains shown)
# VH: QVQLQESGPGLVKPSQTLSLTCTVSGGSISSGGYYWSWIRQHPGKGLEWIGIIYYSGSTYYNPSLKSRVTISVDTSKNQFSLKLNSVTAADTAVFYCARVAIVTTIPGGMDVWGQGTTVTVSS
# VL: EIVLTQSPDFQSVTPKEKVTITCRASQSIGISLHWYQQKPDQSPKLLIKYASQSFSGVPSRFSGSGSGTDFTLTINSLEAEDAATYYCHQSRSFPWTFGQGTKVEIKR
# modifications: mcMMAF on the cysteine of peptide S208FNRGEC214 in part of the chains (0 or 1 drug per L chain); mcMMAF (maleimidocaproyl-monomethyl auristatin F) on cysteine thiols after partial reduction; predominantly 2 drugs on the hinge peptide C225-K250; 0 to 5 drugs per H chain observed; overall DAR 4.0
# notes: a mixture of drug loadings, predominant species 4 drugs; also called H16-7.8mcMMAF ADC; ADC H16-7.8mcMMAF
# B2: 161P2F10B MAb H16-7.8 (antibody, V domains shown)
# VH: B1 VH
# VL: B1 VL
# notes: Fully human IgG2 kappa from XenoMouse; also called native H16-7.8; recombinant H16-7.8
# Key:
# [1] = biological target: T1, 161P2F10B protein; assay: FACS saturation binding on KU812 cells, twelve dilutions, one site fit, n=4
# Method: H16-7.8 and H16-7.8mcMMAF were tested for their binding affinity to 161P2F10B expressed on KU812 cells (human chronic myelogenous leukemia cells, ATCC). Briefly, twelve (12) dilutions of H16-7.8 or H16-7.8mcMMAF were incubated with KU812 cells (50,000 cells per well) overnight at 4° C. at a final concentration of 160 nM to 0.004 nM. At the end of the incubation, cells are washed and incubated with anti-hIgG-PE detection antibody for 45 min at 4° C. After washing the unbound detection antibodies, the cells are analyzed by FACS.
# MFI values were entered into Graphpad Prisim software and analyzed using the one site binding (hyperbola) equation of Y=Bmax*X/(Kd+X) to generate H16-7.8 and H16-7.8mcMMAF saturation curves. Bmax is the MFI value at maximal binding of H16-7.8 or H16-7.8mcMMAF to KU812; Kd is H16-7.8 or H16-7.8mcMMAF binding affinity which are the concentration of H16-7.8 or H16-7.8mcMMAF required to reach halfmaximal binding. […] (n=4).
# [2] = biological target: T1, 161P2F10B protein; assay: FACS saturation binding on Ku812 cells, one site fit of MFI
# Method: FIG. 6. Cell Binding and Affinity of H16-7.8 and H16-7.8mcMMAF. H16-7.8 and H16-7.8mcMMAF were tested for the binding affinity to 161P2F10B endogenously expressed on Ku812 cells. Briefly, eleven (11) dilutions of H16-7.8 or H16-7.8mcMMAF were incubated with Ku812 cells (50,000 cells per well) overnight at 4° C. at a final concentration of 160 nM to 0.0001 nM. At the end of the incubation, cells were washed and incubated with anti-hIgG-PE detection antibody for 45 min at 4° C. After washing the unbound detection antibodies, the cells were analyzed by FACS. Mean Florescence Intensity (MFI) values are obtained (See, Table IV). MFI values were entered into Graphpad Prisim software and analyzed using the one site binding (hyperbola) equation of Y=Bmax*X/(Kd+X) to generate H16-7.8 or H16-7.8mcMMAF saturation curves shown in FIG. 6. […]
# H16-7.8 and H16-7.8mcMMAF were tested for the binding affinity to 161P2F10B endogenously expressed on Ku812 cells. […] After washing the unbound detection antibodies, the cells are analyzed by FACS. […] MFI values were entered into Graphpad Prisim software and analyzed using the one site binding (hyperbola) equation of Y=Bmax*X/(Kd+X) to generate H16-7.8 or H16-7.8mcMMAF saturation curves shown in FIG. 6. […]
# [3] = biological target: T1, 161P2F10B protein; assay: cell-based or functional assay
Binder,Kd [1],Kd [2],"IC 50, inhibition of proliferation of KU812 cells (Alamar blue, 6 days), Lot (1) [3]","IC 50, inhibition of proliferation of KU812 cells (Alamar blue, 6 days), Lot (2) [3]","Specific cytotoxicity activity on KU812 cells, IC50 (Alamar Blue, 6 days) [3]"
B1,0.25 nM,0.19 nM,0.2 nM,0.1 nM,0.15 nM
B2,0.08 nM,0.06 nM,,,
